Among the data in article PMC7102599 (Cell, 2020) are Kd, koff and kon values, retold here.

“And” between values parts separate entries of the source, which are not always exact repeats. Equal entries are not always repeated.

The assay concerns the target human angiotensin-converting enzyme 2 ectodomain (ACE2, residues 1-614) (human, UniProt Q9BYF1 18-614). Briefly: BLI.

Chain of human angiotensin-converting enzyme 2 ectodomain (ACE2, residues 1-614) (Q9BYF1 18-614): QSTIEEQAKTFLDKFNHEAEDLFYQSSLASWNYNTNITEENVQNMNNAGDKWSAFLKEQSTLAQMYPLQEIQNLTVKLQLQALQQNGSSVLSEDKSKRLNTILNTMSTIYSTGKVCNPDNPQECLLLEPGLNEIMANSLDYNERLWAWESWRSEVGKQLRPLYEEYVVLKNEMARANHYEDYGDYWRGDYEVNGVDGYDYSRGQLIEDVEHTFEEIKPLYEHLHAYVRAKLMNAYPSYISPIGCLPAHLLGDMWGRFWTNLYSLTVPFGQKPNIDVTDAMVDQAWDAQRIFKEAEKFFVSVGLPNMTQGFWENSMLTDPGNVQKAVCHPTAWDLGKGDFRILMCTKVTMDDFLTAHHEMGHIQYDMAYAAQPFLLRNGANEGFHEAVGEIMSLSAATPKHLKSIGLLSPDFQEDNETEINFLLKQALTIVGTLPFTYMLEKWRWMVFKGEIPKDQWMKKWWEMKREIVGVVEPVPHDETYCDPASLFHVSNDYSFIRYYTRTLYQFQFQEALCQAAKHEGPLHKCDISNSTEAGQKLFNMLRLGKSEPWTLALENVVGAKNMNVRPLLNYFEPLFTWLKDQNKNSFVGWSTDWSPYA

B1: SARS-CoV S domain B (S^B), residues 306-575 (domain or fragment)
chain: not shown
As for B1, binding was put at a Kd of 5 ± 0.1 nM; the koff was 0.00087 s⁻¹ and 0.00071 s⁻¹; the kon is 170000 M⁻¹ s⁻¹.

By Kd is commonly meant the constant that tells how readily two partners part at equilibrium. The low end stands for higher affinity, the high end for lower affinity. Broadly, the koff is the first-order rate constant of dissociation. Lower therefore signals slow dissociation. Usually kon stands for a measure of how fast the partners come together. A low value points to slower complex formation.
